Reference: patent US20230265198A1 (TWIST BIOSCIENCE, published 2023)
Numbering of substitutions follows the chain as printed.

B1: NRP1-254 (antibody, IgG2, V domains shown)
VH: EVQLLESGGGLVQPGGSLRLSCAASGFTFNTHAMSWVRQAPGKGLEWVSTISGSGGYTYYADSVKGRFTISRDNSKNTLYLQMNSLRAEDTAVYYCAKDLAAAGDYWGQGTLVTVSS
VL: DIQMTQSPSSLSASVGDRVTITCRASQRISTYLNWYQQKPGKAPKLLIYAASHLQSGVPSRFSGSGSGTDFTLTISSLQPEDFATYYCQQSHTTPLTFGGGTKVEIK
B2: NRP1-278 (antibody, IgG2, V domains shown)
VH: EVQLLESGGGLVQPGGSLRLSCAASGFTFRRYAMSWVRQAPGKGLEWVSAISGSGDRTYYADSVKGRFTISRDNSKNTLYLQMNSLRAEDTAVYYCARDRGLRYFDWSFDYWGQGTLVTVSS
VL: B1 VL with A25T, R28S, T31S, S52A, H53G, Q55R, S56G, H92F, L96W
B3: NRP1-257 (antibody, IgG2, V domains shown)
VH: EVQLLESGGGLVQPGGSLRLSCAASGFTFSRYGMSWVRQAPGKGLEWVSTISGSGGSTSYADSVKGRFTISRDNSKNTLYLQMNSLRAEDTAVYYCARASHVDIPRRAPKRRHSFDSWGQGTLVTVSS
VL: B1 VL with R28T, T31N, L33V, H53S, Q55H, S56A, S91G, H92Y, T93S
B4: NRP1-276 (antibody, IgG2, V domains shown)
VH: EVQLLESGGGLVQPGGSLRLSCAASGFPFTSYAMSWVRQAPGKGLEWVSAISSSGTGTYYADSVKGRFTISRDNSKNTLYLQMNSLRAEDTAVYYCARLKRGGTNLVRKATRYQFYGMDAWGQGTLVTVSS
VL: B1 VL with R28S, I29V, T31R, A50G, H53T, S56A, H92Y
B5: NRP1-264 (antibody, IgG2, V domains shown)
VH: EVQLLESGGGLVQPGGSLRLSCAASGFTFRGYAMSWVRQAPGKGLEWVSTISGSGGVTYYADSVKGRFTISRDNSKNTLYLQMNSLRAEDTAVYYCARVRVDARPRGMMSRYYGMDVWGQGTLVTVSS
VL: B1 VL with R28S, T31N, Y32R, A50G, H53S, S56P, H92F, T93N, L96R
B6: NRP1-268 (antibody, IgG2, V domains shown)
VH: EVQLLESGGGLVQPGGSLRLSCAASGFIFSTYALSWVRQAPGKGLEWVSGINGSGASTYYADSVKGRFTISRDNSKNTLYLQMNSLRAEDTAVYYCAREGQGWTSLLPRPSQRRPQRRPPYYGLDVWGQGTLVTVSS
VL: B1 VL with A25G, R28S, S30T, T31R, Y32F, A51T, H53R, T93S, T94F, L96R
B7: NRP1-265 (antibody, IgG2, V domains shown)
VH: EVQLLESGGGLVQPGGSLRLSCAASGFTFGKYAMTWVRQAPGKGLEWVSGISGSGGRTNYADSVKGRFTISRDNSKNTLYLQMNSLRAEDTAVYYCARDFVAWRGGFRRYYSYNGMDVWGQGTLVTVSS
VL: B1 VL with R28Y, I29V, A50G, A51T, H53R, H92Y, T93S, L96K
B8: NRP1-270 (antibody, IgG2, V domains shown)
VH: EVQLLESGGGLVQPGGSLRLSCAASGFTFSIYAMGWVRQAPGKGLEWVSSISGRGGSIYYADSVKGRFTISRDNSKNTLYLQMNSLRAEDTAVYYCARSAGTFDYWGQGTLVTVSS
VL: B1 VL with R28S, S30R, T31S, Y32H, H53S, L54V, Q55E, H92Y, T93S, T94A
B9: NRP1-274 (antibody, IgG2, V domains shown)
VH: EVQLLESGGGLVQPGGSLRLSCAASGFTFSKYAMNWVRQAPGKGLEWVSTISGSGGSTSYADSVKGRFTISRDNSKNTLYLQMNSLRAEDTAVYYCARGQDIKRNVMRRGGRLNWFDPWGQGTLVTVSS
VL: B1 VL with R28S, S30G, T31S, Y32N, A50G, S52T, H53N, H92Y, T93R
B10: NRP1-258 (antibody, IgG2, V domains shown)
VH: EVQLLESGGGLVQPGGSLRLSCAASGFRFGNYAMSWVRQAPGKGLEWVSAISGSAGRTYYADSVKGRFTISRDNSKNTLYLQMNSLRAEDTAVYYCARAPFQSRIGLAGTRRHKRDNFDQWGQGTLVTVSS
VL: DIQMTQSPSSLSASVGDRVTITCRASQSIDNFLNWYQQKPGKAPKLLIYGASKLQRGVPSRFSGSGSGTDFTLTISSLQPEDFATYYCQQSYSSPPVTFGGGTKVEIK

Target: T1, neuropilin-1 (NRP1) on HEK293 cells overexpressing NRP1 (UniProt O14786 22-923, limits assumed)
T1 construct: whole, on cells
Assay: flow cytometry, HEK293-NRP1 vs HEK293

| Binder | 100 nM FACS (MFI Ratio) |
| --- | --- |
| B1 | 2.8 |
| B2 | 3 |
| B3 | 0.9 |
| B4 | 2.6 |
| B5 | 3 |
| B6 | 2.1 |
| B7 | 2.5 |
| B8 | 3 |
| B9 | 1 |
| B10 | 0.7 |
